Experiment [1] has as its target T1, full-length human SIRPγ (NP_061026.2) on cells (human, UniProt Q9P1W8 29-387).
T1 construct: also called CHO-hSIRPγ; γ WT
Put plainly: flow cytometry, Expi-CHO cells expressing full-length wild-type human SIRPγ. The protocol: […] These cells are blocked with donkey IgG and incubated on ice with increasing concentrations of antibodies for 60 minutes, washed and stained with AF647-conjugated donkey F(ab′)₂ anti-human IgG antibodies. Stained cells are washed, fixed, and analyzed by flow cytometry. Median fluorescent intensity is determined and used as a measure of antibody binding.
For orientation: In flow cytometry, cells or beads pass a laser one at a time.

The target of experiment [2] is T2, full-length human SIRPγ E→D on Expi-CHO cells (human, UniProt Q9P1W8 29-387).
T2 construct: the entry already carries the change (PENV to PDNV)
Put plainly: flow cytometry, Expi-CHO cells. How it is done:
(§1) Expi-CHO parental cells are transduced with lentiviruses containing either full-length wild-type human SIRPγ ([…]) or full-length human SIRPγ with amino acid point mutations (Table 64) and sorted to achieve matching expression levels. These cells are blocked with donkey IgG and incubated on ice with increasing concentrations of antibodies for 60 minutes, washed and stained with AF647-conjugated donkey F(ab′)₂ anti-human IgG antibodies. Stained cells are washed, fixed, and analyzed by flow cytometry. Median fluorescent intensity is determined and used as a measure of antibody binding.

The target in experiment [3] is T1, full-length human SIRPγ (NP_061026.2) …. Put plainly: flow cytometry, Expi-CHO cells. How it is done: as §1
The target of experiment [4] is T3, full-length human SIRPβL (NP_001129316.1) on cells (human, UniProt Q5TFQ8 30-398).
T3 construct: on U937 SIRPα KO cells and Expi-CHO cells; also called βL WT; SIRPβ1v3
Put plainly: flow cytometry, U937 SIRPα KO cells. In short, it runs like this:
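SIRPα-knockout U937 cells expressing SIRPβ1 or SIRPβL were blocked with donkey IgG, then incubated on ice 60 minutes with increasing antibody concentrations. Bound antibody detected with AF647 anti-human IgG F(ab′)₂; median fluorescence intensity taken as binding.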

In experiment [5] the target is full-length human SIRPβ1 D→H on Expi-CHO cells (human, UniProt O00241 30-398). Put plainly: flow cytometry, Expi-CHO cells. How it is done:
These cells are blocked with donkey IgG and incubated on ice with increasing concentrations of antibodies for 60 minutes, washed and stained with AF647-conjugated donkey F(ab′)₂ anti-human IgG antibodies. Stained cells are washed, fixed, and analyzed by flow cytometry. Median fluorescent intensity is determined and used as a measure of antibody binding.

Experiment [6] has as its target T4, human SIRPβL/SIRPβ1v3 extracellular domain + His-tag (NP_001129316.1) (human, UniProt Q5TFQ8 30-371).
T4 construct: also called hSIRPβ1v3; HuSIRPβ1v3
Put plainly: SPR, Ab captured, ECD-His analyte. The method in brief:
(§2)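 In HBS-EP+ (1×), captured antibodies are exposed to a twofold concentration series of SIRP extracellular domain carrying a His tag, using 300 s contact at 30 μl/min and a 600 s dissociation window.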

For experiment [7], the target named is T5, human SIRPβ1 extracellular domain + His-tag (NP_006056.2) (human, UniProt O00241 30-371).
T5 construct: also called hSIRPβ1; HuSIRPβ1
Put plainly: SPR, Ab captured, ECD-His analyte. In short, it runs like this: as §2
A general note: SPR reads the build-up and loss of mass on a sensor chip optically.

Experiment [8] has as its target T6, human SIRPγ extracellular domain + His-tag (NP_061026.2) (human, UniProt Q9P1W8 29-360).
T6 construct: also called hSIRPγ; HuSIRPγ
Description: SPR, Ab captured, ECD-His analyte. In short, it runs like this:
as §2

Experiment [9] has as its target T7, cynomolgus SIRPα extracellular domain + His-tag (EGM_02252) (cynomolgus monkey).
T7 construct: also called CySIRPα EGM_02252; cynoSIRPα
T7 chain: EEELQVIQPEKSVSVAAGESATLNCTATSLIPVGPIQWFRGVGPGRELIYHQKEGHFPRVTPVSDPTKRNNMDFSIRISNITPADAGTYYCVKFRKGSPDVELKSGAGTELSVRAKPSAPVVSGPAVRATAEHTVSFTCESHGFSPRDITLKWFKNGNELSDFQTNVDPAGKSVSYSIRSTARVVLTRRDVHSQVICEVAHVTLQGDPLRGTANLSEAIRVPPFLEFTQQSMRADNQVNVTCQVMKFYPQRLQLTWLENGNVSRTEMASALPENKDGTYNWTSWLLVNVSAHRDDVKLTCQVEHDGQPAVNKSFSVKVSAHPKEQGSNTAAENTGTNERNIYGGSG
Description: SPR, Ab captured, ECD-His analyte. In short, it runs like this:
as §2

Experiment [10] addresses T8, cynomolgus SIRPγ extracellular domain + His-tag (XP_005568591) (cynomolgus monkey, UniProt Q9P1W8 29-359 (human entry)).
T8 construct: also called Cyno SIRPγ; cynoSIRPγ
T8 chain: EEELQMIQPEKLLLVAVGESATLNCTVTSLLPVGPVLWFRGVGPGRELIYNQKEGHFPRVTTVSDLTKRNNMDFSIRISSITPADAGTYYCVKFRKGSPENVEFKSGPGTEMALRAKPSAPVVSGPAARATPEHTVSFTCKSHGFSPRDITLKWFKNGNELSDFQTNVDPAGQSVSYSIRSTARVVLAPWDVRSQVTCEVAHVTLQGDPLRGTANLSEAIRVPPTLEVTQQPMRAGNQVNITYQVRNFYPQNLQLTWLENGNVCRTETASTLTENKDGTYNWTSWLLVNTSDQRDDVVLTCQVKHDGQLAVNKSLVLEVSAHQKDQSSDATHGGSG
Put plainly: SPR, Ab captured, ECD-His analyte. The method in brief: as §2

T1 sequence (Q9P1W8 29-387): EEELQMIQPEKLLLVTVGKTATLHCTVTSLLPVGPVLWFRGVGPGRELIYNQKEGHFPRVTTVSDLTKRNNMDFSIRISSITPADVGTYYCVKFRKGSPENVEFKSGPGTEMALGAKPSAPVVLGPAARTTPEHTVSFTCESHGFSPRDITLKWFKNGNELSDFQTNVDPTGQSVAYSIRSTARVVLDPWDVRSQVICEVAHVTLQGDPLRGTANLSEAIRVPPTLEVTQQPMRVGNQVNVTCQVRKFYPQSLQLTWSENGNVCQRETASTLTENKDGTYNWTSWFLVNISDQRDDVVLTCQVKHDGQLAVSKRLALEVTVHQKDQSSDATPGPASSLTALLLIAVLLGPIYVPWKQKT
T6 sequence (Q9P1W8 29-360): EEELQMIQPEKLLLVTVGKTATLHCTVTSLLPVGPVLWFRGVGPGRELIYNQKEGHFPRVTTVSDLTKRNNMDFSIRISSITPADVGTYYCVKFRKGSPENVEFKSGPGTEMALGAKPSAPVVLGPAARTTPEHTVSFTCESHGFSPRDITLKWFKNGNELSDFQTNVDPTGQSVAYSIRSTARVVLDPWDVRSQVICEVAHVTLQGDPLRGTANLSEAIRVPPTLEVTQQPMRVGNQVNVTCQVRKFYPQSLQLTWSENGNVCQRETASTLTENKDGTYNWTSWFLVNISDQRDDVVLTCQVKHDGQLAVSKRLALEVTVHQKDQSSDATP
T3 sequence (Q5TFQ8 30-398): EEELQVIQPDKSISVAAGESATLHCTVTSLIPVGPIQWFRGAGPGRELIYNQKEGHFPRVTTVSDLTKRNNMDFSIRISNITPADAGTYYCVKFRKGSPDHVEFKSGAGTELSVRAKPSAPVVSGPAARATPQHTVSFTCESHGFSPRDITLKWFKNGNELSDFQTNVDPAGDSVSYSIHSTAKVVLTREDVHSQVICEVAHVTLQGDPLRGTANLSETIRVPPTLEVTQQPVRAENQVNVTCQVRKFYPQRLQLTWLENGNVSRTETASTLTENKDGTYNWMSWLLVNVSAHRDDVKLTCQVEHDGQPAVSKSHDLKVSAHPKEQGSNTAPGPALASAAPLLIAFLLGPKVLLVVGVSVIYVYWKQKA
Chain of full-length human SIRPβ1 D→H on Expi-CHO cells (O00241 30-398 D130H): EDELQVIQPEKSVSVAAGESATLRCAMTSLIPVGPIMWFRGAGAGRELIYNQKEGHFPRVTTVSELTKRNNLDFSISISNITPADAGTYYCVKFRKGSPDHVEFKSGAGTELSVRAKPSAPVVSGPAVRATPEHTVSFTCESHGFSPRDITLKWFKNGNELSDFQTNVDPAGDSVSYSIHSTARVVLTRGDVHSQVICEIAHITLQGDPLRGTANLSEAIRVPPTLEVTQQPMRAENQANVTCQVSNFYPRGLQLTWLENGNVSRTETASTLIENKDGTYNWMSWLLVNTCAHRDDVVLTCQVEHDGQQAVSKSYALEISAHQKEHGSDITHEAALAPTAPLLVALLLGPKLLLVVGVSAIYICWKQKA
T5 sequence (O00241 other isoform, or with tags, fused parts or gaps): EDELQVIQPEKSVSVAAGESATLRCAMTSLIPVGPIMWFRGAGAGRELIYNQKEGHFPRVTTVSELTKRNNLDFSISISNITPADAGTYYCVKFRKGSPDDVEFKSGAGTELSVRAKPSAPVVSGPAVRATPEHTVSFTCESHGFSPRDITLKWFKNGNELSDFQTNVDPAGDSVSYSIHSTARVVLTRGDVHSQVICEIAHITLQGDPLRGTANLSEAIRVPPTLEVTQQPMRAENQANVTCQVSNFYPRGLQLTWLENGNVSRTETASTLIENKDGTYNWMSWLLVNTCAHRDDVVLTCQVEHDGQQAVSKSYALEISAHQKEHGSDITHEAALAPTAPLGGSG
T4 sequence (Q5TFQ8 other isoform, or with tags, fused parts or gaps): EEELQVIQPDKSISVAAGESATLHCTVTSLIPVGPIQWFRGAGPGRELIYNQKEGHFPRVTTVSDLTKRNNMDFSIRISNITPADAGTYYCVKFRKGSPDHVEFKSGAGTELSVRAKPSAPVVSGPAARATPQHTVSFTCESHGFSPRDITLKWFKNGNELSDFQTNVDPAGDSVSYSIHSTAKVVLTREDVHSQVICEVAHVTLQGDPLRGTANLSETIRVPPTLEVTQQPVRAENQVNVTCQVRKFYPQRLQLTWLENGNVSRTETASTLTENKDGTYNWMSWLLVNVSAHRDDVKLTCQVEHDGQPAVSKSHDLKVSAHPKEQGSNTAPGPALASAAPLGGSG
T2 sequence (Q9P1W8 29-387 E128D): as the sequence (Q9P1W8 29-387) above, with E100D counted along it

B1: Antibody E22 (antibody, human IgG1, kappa, L234A L235A, V domains shown)
VH: QVQLQESGPGLVKPSETLSLTCTVSGGSIRDYYWSWIRQPPGKGLEWIGFIYYNGRTFYQSSLKSRVTISLDTSKNQFSLKMTSVTAADTAVYYCARVRAYSGIGLDGTDVWGQGTTVTVSS
VL: DIVMTQSPLSLPVTPGEPASISCRSSQSLLYSTGYTYLDWYLQRPGQSPQLLIYGGSSRASGVPDRFSGSGSGTDFTLKISRVEAEDVGVFYCGQALQTPLTFGQGTKVEIKR
Regarding B1, the binding result in experiment [1] was “no binding (tested: about 67 nM)”.

B2: Anti-SIRPα antibody KWAR23 (antibody, V domains shown)
VH: EVQLQQSGAELVKPGASVKLSCTASGFNIKDYYIHWVQQRTEQGLEWIGRIDPEDGETKYAPKFQDKATITADTSSNTAYLHLSSLTSEDTAVYYCARWGAYWGQGTLVTVSS
VL: QIVLTQSPAIMSASPGEKVTLTCSASSSVSSSYLYWYQQKPGSSPKLWIYSTSNLASGVPARFSGSGSGTSYSLTISSMEAEDAASYFCHQWSSYPRTFGAGTKLELK
The EC50 is the concentration at which the effect is half-maximal. In the case of B2, the EC50 was found to be 0.3 nM in [2] and 0.113 nM in [3].

B3: Antibody A10 (antibody, human IgG1, kappa, L234A L235A)
heavy: not shown
light: DIQMTQSPSSLSASVGDRVTITCRASQDINNYLAWFQQKPGKAPKSLIYTASSLHSGVPSKFSGSGSGTDFTLTISSLQPEDFATYYCQQYVSYPYTFGQGTKLEIKRTVAAPSVFIFPPSDEQLKSGTASVVCLLNNFYPREAKVQWKVDNALQSGNSQESVTEQDSKDSTYSLSSTLTLSKADYEKHKVYACEVTHQGLSSPVTKSFNRGEC
For the molecule B3, the binding result in experiment [1] is “no binding (tested: about 67 nM)”.

B4: Antibody A (antibody, human IgG1, kappa, L234A L235A)
heavy: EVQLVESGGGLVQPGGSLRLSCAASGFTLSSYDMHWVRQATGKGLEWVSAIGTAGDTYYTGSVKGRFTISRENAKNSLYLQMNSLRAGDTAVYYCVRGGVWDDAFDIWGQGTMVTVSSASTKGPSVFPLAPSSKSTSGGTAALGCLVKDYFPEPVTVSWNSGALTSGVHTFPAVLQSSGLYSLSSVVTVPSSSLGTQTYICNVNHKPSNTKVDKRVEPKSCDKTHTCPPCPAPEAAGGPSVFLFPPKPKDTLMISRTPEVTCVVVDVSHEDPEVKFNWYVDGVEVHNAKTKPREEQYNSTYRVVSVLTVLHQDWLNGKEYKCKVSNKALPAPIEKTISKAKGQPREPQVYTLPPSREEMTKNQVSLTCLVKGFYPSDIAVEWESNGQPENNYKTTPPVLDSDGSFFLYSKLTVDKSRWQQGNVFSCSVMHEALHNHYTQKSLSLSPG
light: B3 light
As usually defined, the Kd is the concentration at which binding is half-saturated. Turning to B4, the binding result in experiment [4] was “no binding”; in [5], “no binding”; in experiment [6], “no binding (tested: 100 nM)”; in experiment [8] it was “no binding (tested: 1000 nM)”; in [10] it was “no binding (tested: 1000 nM)”. Besides, the values for the Kd in experiment [7] and in [9] were 64.8 nM and 258 nM, respectively.

B5: Antibody A10 (antibody, human IgG1, kappa, L234A L235A)
heavy: not shown
light: B3 light
Turning to B5, the binding result in experiment [4] is listed as “no binding”; in [5], “no binding”; in experiment [6], “no binding (tested: 100 nM)”; in experiment [8], “no binding (tested: 1000 nM)”; in [10] it was “no binding (tested: 1000 nM)”. The Kd in experiment [7] stood at 69 nM; in [9], 249 nM.

The values above are taken from US20230012273A1 (Boehringer Ingelheim, published 2023).
